Target: the molecule itself
Assay: SEC

B1: His6-MBP-UvrC fusion protein (holo form, with [4Fe4S] cluster) (enzyme, E. coli, UniProt P0A8G0 1-610, looked up)
chain: MSDQFDAKAFLKTVTSQPGVYRMYDAGGTVIYVGKAKDLKKRLSSYFRSNLASRKTEALVAQIQQIDVTVTHTETEALLLEHNYIKLYQPRYNVLLRDDKSYPFIFLSGDTHPRLAMHRGAKHAKGEYFGPFPNGYAVRETLALLQKIFPIRQCENSVYRNRSRPCLQYQIGRCLGPCVEGLVSEEEYAQQVEYVRLFLSGKDDQVLTQLISRMETASQNLEFEEAARIRDQIQAVRRVTEKQFVSNTGDDLDVIGVAFDAGMACVHVLFIRQGKVLGSRSYFPKVPGGTELSEVVETFVGQFYLQGSQMRTLPGEILLDFNLSDKTLLADSLSELAGRKINVQTKPRGDRARYLKLARTNAATALTSKLSQQSTVHQRLTALASVLKLPEVKRMECFDISHTMGEQTVASCVVFDANGPLRAEYRRYNITGITPGDDYAAMNQVLRRRYGKAIDDSKIPDVILIDGGKGQLAQAKNVFAELDVSWDKNHPLLLGVAKGADRKAGLETLFFEPEGEGFSLPPDSPALHVIQHIRDESHDHAIGGHRKKRAKVKNTSSLETIEGVGPKRRQMLLKYMGGLQGLRNASVEEIAKVPGISQGLAEKIFWSLKH
stoichiometry N: 2

Source: paper PMC7392197 (Journal of the American Chemical Society, 2020)
